Experimental data taken from patent US20220283175A1, “METALLOENZYMES FOR BIOMOLECULAR RECOGNITION OF N-TERMINAL MODIFIED PEPTIDES” (Encodia, Inc., priority 2020, published 2022).

Columns and labels:
Test in all cases: cell-based or functional assay
[1] = target: wild-type human carbonic anhydrase II (hCAII) protein (human) (UniProt P00918)
[2] = target: M64-FAEIR
[3] = target: M64-AAEIR
[4] = target: M64-LAEIR
[5] = target: M64-DAEIR
[6] = target: M64-EAEIR

Substance	IC50 (µM), hCAII functional assay [1]	IC50 (inhibition of pNPA hydrolysis, colorimetric assay) [2]	IC50 (inhibition of pNPA hydrolysis, colorimetric assay) [3]	IC50 (inhibition of pNPA hydrolysis, colorimetric assay) [4]	IC50 (inhibition of pNPA hydrolysis, colorimetric assay) [5]	IC50 (inhibition of pNPA hydrolysis, colorimetric assay) [6]
FAAAE (peptide)	152 µM	–	–	–	–	–
SEQ ID NO: 58 (wild-type hCAI according to the heading of Table 11) (from UniProt P00915 5-261) (enzyme)	–	0.012 µM	0.109 µM	0.016 µM	0.136 µM	1.09 µM
